Source: the supplement of paper PMC9170038

Test system: MS2 coat protein
Test: apparent KD of MS2 coat protein; designed switch direction (-1 OFF switch, 1 ON switch): 1; higher = weaker reporter binding
In short: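 An oligonucleotide input, 200 uM small-molecule ligand, or no input was present during titration of SNAP-549-labelled MS2 coat protein, which was doubled from 0.7 or 1.5 nM to 3 µM. Designed RNA switches had been transcribed on Illumina chips by stalled E. coli RNA polymerase. Apparent KD per design is the median over clusters of curves fitted to normalised cluster fluorescence.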

[1] = input ligand: microRNA oligo, concentration not stated
[2] = Eterna round: R95, input ligand: FMN 200 uM
[3] = Eterna round: R95, input ligand: microRNA oligo, concentration not stated
[4] = Eterna round: R95, input ligand: none

Row | Sequence | apparent KD of MS2 coat protein (input ligand: FMN 200 uM) [nM] | apparent KD of MS2 coat protein [1] [nM] | apparent KD of MS2 coat protein (input ligand: none) [nM] | apparent KD of MS2 coat protein [2] [nM] | apparent KD of MS2 coat protein [3] [nM] | apparent KD of MS2 coat protein [4] [nM]
1 | GCGAGCGUACUUGCAGACAUGAGGAUCACCCAUGUAACUGGACAGGAUAUGGUACCGUUUCGGUACCAGAAGGGUUUACAUGUU [JL SSNG3 3.51] (Eterna round: R96, puzzle: Same State NG 3) | 20.2 | 27.2 | 47.7 | – | – | –
2 | GCGAGGAUAUGGAGAGGAUCACCCUCUAGAAGGCGCGAAGGCGAGGAUAUGGAGAGGAUCACCCUCUAGAAGGCGCACUUCUCU [pwkr ssNG3 DX 2xF5 +2xFMN.5] (Eterna round: R96, puzzle: Same State NG 3) | 222 | 162 | 235 | – | – | –
3 | GCGAUAUGAUGUUACAUGAGGAUCACCCAUGUAGCGAUAGCUAAGGAUAUUUGAAAGGGAGGAGAAGAGAAGGUAGGAUCACGC [AK SSNG3-V2-22.2] (Eterna round: R96, puzzle: Same State NG 3) | 24.6 | 18.6 | 20.3 | – | – | –
4 | GCGGAACGGGCCGACAUGAGGAUCACCCAUGUGGCCUCAUGUCAGGAUAUCGGGAAGAAGAAAACCGAGAAGGGACGGUGACGC [AK SSNG3-V2-32] (Eterna round: R96, puzzle: Same State NG 3) | 8.18 | 29.8 | 22.2 | – | – | –
5 | GCGGAGAGGUAAGGAUAUCCAUGGAAGACACAUGAGGAUCACCCAUGUGGGAGGGAAACCAGGAGGGAGAAGGUACCGGGACGC [AK SSNG2-V2-21] (Eterna round: R96, puzzle: Same State NG 2) | 11.5 | 10.4 | 13.2 | – | – | –
6 | GCUACCAUUGAUGCCUACAUGAGGAUCACCCAUGUAUGUAGGCAGGAUAUCGAUUGCAAAGCGAUCGAGAAGGGCUUAGGUAGC [Mat - Same State NG 3 - JL Mod - D93] (Eterna round: R96, puzzle: Same State NG 3) | 56 | 103 | 149 | – | – | –
7 | GCUAGAAAUAAAGCCAACAUGAGGAUCACCCAUGUAUGUUGGUAGGAUAUCGUAUGCAAAGCAUACGAGAAGGGCUAAACUAGC [Mat - Same State NG 3 - JL Mod - D18] (Eterna round: R96, puzzle: Same State NG 3) | 91.6 | 77.5 | 93.7 | – | – | –
8 | GCUAGAAUUAAAGCCAACAUGAGGAUCACCCAUGUAUGUUGGUAGGAUAUCGUUUGCUUUGCAAACGAGAAGGGCCAAACUAGC [JL SSNG3 1.07] (Eterna round: R96, puzzle: Same State NG 3) | 64.7 | 142 | 111 | – | – | –
9 | GCUAGGAAUAAAGCCAACAUGAGGAUCACCCAUGUAUGUUGGUAGGAUAUCGUAUGCAAAGCAUACGAGAAGGGCUAACCUAGC [Mat - Same State NG 3 - JL Mod - D69] (Eterna round: R96, puzzle: Same State NG 3) | 71.4 | 49.5 | 64.8 | – | – | –
10 | GCUCAUAGUAUAUGGGUACAAGCUUUUUGACAUGAGGAUCACCCAUGUACUCGUCUUAUGUGCAGUCCGUAGACUGC [JL-shm-2.21 Brourd mod] (puzzle: Sensor for hsa-mir-208a) | – | – | – | 104 | 17.3 | 137
11 | GCUCGAUGAGCGUCCUACAUGAGGAUCACCCAUGUUCGUGGGCAGGAUAUUUACAUGCAGAGUGUAGAGAAGGGCCCAUCGAGC [SameState NG3 #65] (Eterna round: R96, puzzle: Same State NG 3) | 546 | 482 | 477 | – | – | –
12 | GCUCGCACGAUGACCCACAUGAGGAUCACCCAUGUGUGUGGGCAGGAUAUCUAGAUUAAGGAUGUAGAGAAGGGUUGAGCGAGC [SameState NG3 #24] (Eterna round: R96, puzzle: Same State NG 3) | 513 | 133 | 138 | – | – | –
13 | GCUCGUAUGAUGACCGACAUGAGGAUCACCCAUGUGUGUCGGUAGGAUAUCUAUAUUAAGGAUAUAGAGAAGGGCCGAACGAGC [SameState NG3 #17] (Eterna round: R96, puzzle: Same State NG 3) | 31.4 | 62.9 | 92.9 | – | – | –
14 | GCUUGCGGCGCAGGAUAUGGGUGCCUGUACAUGAGGAUCACCCAUGUUAAGGGACGGAUUACGAACCAGAAGGGCGUGGCGGGC [Ceerce] (Eterna round: R96, puzzle: Same State NG 2) | 47.8 | 108 | 430 | – | – | –
15 | GGAAUAUGAUGUUACAUGAGGAUCACCCAUGUAGUAAUAACUAAGGAUAUCUGAGGAGGAGGAGAAGAGAAGGUAGGAUCAUAA [AK SSNG3-V2-10] (Eterna round: R96, puzzle: Same State NG 3) | 23.8 | 22.2 | 33.2 | – | – | –
16 | GGAAUCUCCAGAGAGGAUAUGCGGCGUUAAACAUGAGGAUCACCCAUGUCCUUCGAAUGGGUAACGCAGAAGGCUCUACGGUUCC [Shapeless] (puzzle: Same State 2) | – | – | – | 115 | 594 | 1220
17 | GGAGAGAGAGCGCAGGAUAUUUAAGGAGAAACAUGAGGAUCACCCAUGUGAGAGAGAGAGGAGAGAGAGAAGGGUGAGAGAGAGG [Altered State 2-16 - Jieux - Same State 2] (puzzle: Same State 2) | – | – | – | 26.7 | 23.9 | 36.2
18 | GGAGCCAAGGCAGGAUAUUCAUAUUAAAUACAUGAGGAUCACCCAUGUUAGGCCAGAAGGCCUUGGGAGAAGGGCCAUGGCUCG [Xeonanis - 13 mod20] (Eterna round: R96, puzzle: Same State NG 2) | 17 | 34.1 | 52.5 | – | – | –
19 | GGAGCCAAGGCAGGAUAUUCAUAUUAAAUGACAUGAGGAUCACCCAUGUUGGCCAGAAGGCCAUGGGAGAAGGGCCAUGGCUCG [Xeonanis - 13 mod23] (Eterna round: R96, puzzle: Same State NG 2) | 41.3 | 127 | 166 | – | – | –
20 | GGAGCCAAGGCAGGAUAUUCAUUAUAAAUAACAUGAGGAUCACCCAUGUUGGCCAGAAGGCCAUGGGAGAAGGGCCAUGGCUCG [Xeonanis - 13 mod24] (Eterna round: R96, puzzle: Same State NG 2) | 17.7 | 73.7 | 105 | – | – | –
21 | GGAGCCGGCACCGAGGAUAUUCAUAUUAAAACAUGAGGAUCACCCAUGUACCGGAGAACCGGUUGGGAGAAGGCGGAUCGGCUCG [Xeonanis - 24] (puzzle: Same State 2) | – | – | – | 35.4 | 333 | 596
22 | GGAGCCGGCCUAGGAUAUUUCAUAAAAACACAUGAGGAUCACCCAUGUAGGCCAGAAGGCCUUGGGAAGAAGGAGGUCGGCUCC [Loop Effect - C29] (Eterna round: R96, puzzle: Same State NG 2) | 10.6 | 18.3 | 23.6 | – | – | –
23 | GGAGCCGGCCUAGGAUAUUUCAUAAAAAUACAUGAGGAUCACCCAUGUAGGCCAGAAGGCCUUGGGAAGAAGGAGGUCGGCUCC [Loop Effect - U29] (Eterna round: R96, puzzle: Same State NG 2) | 10.7 | 15 | 17.3 | – | – | –
24 | GGAGCCGGCCUAGGAUAUUUCAUGAAAAAACAUGAGGAUCACCCAUGUAGGCCAGAAGGCCUUGGGAAGAAGGAGGUCGGCUCC [Loop Effect - G24] (Eterna round: R96, puzzle: Same State NG 2) | 32.1 | 151 | 472 | – | – | –
25 | GGAUGACGGACAGGAUAUUGAUUCUAAUGGUUUCAAGAAGGGUCUUCGAUAUAAACGACCAGUUACAUGAGGAUCACCCAUGUU [JR_SSNG1_Sub033] (Eterna round: R96, puzzle: Same State NG 1) | 25.9 | 66 | 45 | – | – | –
26 | GGAUGAUAAAUAGGAUAUUAAUUGUAAUUAGGUUAAGAAGGAUUAAUGAUUUAAACGACCAGUUACAUGAGGAUCACCCAUGUU [JR_SSNG1_Sub088] (Eterna round: R96, puzzle: Same State NG 1) | – | 108 | – | – | – | –
27 | GGAUGAUAGACAGGAUAUUGAUUGUAAUUAGGACAAGAAGGGUCAAUGAUUUAAACGACCAGUUACAUGAGGAUCACCCAUGUU [JR_SSNG1_Sub026] (Eterna round: R96, puzzle: Same State NG 1) | 55.7 | 34 | 55.3 | – | – | –
28 | GGCCAGAGUCAAGGAUAUGCUACCGUUUCGGUAGCAGAAGGUGAUCACAUGAGGAUCACCCAUGUAUACGCUGGGAAGCGGGCC [JL SSNG1 3.65] (Eterna round: R96, puzzle: Same State NG 1) | 163 | 155 | 119 | – | – | –
29 | GGCGUAUAAACAUGAGGAUCACCCAUGUUGCGGAGACGCAAUGAGGAUAUCGAUGGGUUUCCCGUCGAGAAGGCGUGGGUCGCC [JL SSNG3 3.95] (Eterna round: R96, puzzle: Same State NG 3) | 22.3 | 24.6 | 40.2 | – | – | –
30 | GGGAGACCUCAAGGAUAUGCUACCGUUUCGGUAGCAGAAGGUGAUCACAUGAGGAUCACCCAUGUAUGCAUGCGUGAGCGUGCU [JL SSNG1 3.58] (Eterna round: R96, puzzle: Same State NG 1) | 79.4 | 11.6 | 67.8 | – | – | –
